For orientation: IC50 means the concentration needed to halve the response being measured.

Where a SMILES comes first, the peptide text is derived from it. Where no end group is shown, it is not given here. [ ]: non-standard residue; d: D form. Ala(indol-4-yl) = N[C@@H](Cc1cccc2[nH]ccc12)C(=O)O; Gly(cPent) = N[C@H](C(=O)O)C1CCCC1; Tic = O=C(O)[C@@H]1Cc2ccccc2CN1; Chg = N[C@H](C(=O)O)C1CCCCC1; Pip = O=C(O)[C@@H]1CCCCN1; Idg = not defined here

The text below walks through data of patent US8598312B2, “Inhibitors of antigen presentation by MHC class II molecules” (Provid Pharmaceuticals, Inc., priority 2003, dated 2013).

The target in experiment [1] is MHC class II HLA-DR2 (DRA*0101/DRB1*1501) (human). The experiment can be described thus: competition binding assay, purified HLA-DR, biotinylated reference peptide SEQ ID NO 107 as competitor, L243 capture.
The conditions of experiment [2]: in vivo; cited from earlier work.
Another experiment concerns T cell proliferation. Conditions: cited from earlier work.
Another experiment has as its target DR13 (HLA-DR molecules). The experiment can be described thus: HLA II binding assay, DR13. Conditions: read-out: Inhibition of peptide binding IC50 DR13. Also on record: species or system human.
Another experiment addresses DRB5*0101 molecules (Homo sapiens, UniProt P01903+Q30154). Conditions: DR2 haplotype; cited from earlier work.
In the next experiment the target is DRB1*1501 molecules (Homo sapiens, UniProt P01903+P01911). Conditions: DR2 haplotype; cited from earlier work.
The target in experiment [3] is T1, MHC class II HLA-DR2 (DRA*0101/DRB1*1501) (human, UniProt P01903 26-254; P01911 30-266, limits assumed).
T1 construct: mature; Detergent-solubilised native molecule purified from cells; also called DR2b
The experiment can be described thus: competition binding assay, purified HLA-DR, biotinylated reference peptide SEQ ID NO 107 as competitor, L243 capture.

For another experiment, the target named is T2, DR2a (human, UniProt P01903 26-216, limits assumed).
T2 construct: mature
The experiment can be described thus: competition binding assay, purified HLA-DR, biotinylated reference peptide (not named), L243 capture.

In experiment [1], Ac(Cpg)R(Tic)F(hPro) (peptide) yielded an IC50 of 75 nM.
As for a(Cha)AAAKTAAAAa-NH2, the “activity in animal models of autoimmune disease” value in experiment [2] is “did not show activity”. The “suppression of T cell proliferation in response to protein antigens” value in the experiment with T cell proliferation was “did not supress T cell proliferation”.
In the case of `CC(=O)N[C@H](C(=O)N[C@@H](CCCNC(=N)N)C(=O)N1Cc2ccccc2C[C@H]1C(=O)N[C@@H](Cc1ccccc1)C(=O)N1CCCC[C@H]1C(N)=O)C1CCCC1` [Ac(Cpg)R(Tic)F(hPro), Ac(Cpg)R(Tic)F(homo Pro)] (Ac-[Gly(cPent)]R[Tic]F[Pip]-NH2; N-terminus and C-terminus assumed), the IC50 on DR13 (HLA-DR molecules) is > 100000 nM.
“MBP (84-102): immunodominant myelin basic protein (84-102) peptide (DPGSRPHLIRLFSRDAPGR; Myelin basic protein; UniProt P02686 84-102, looked up, fragment)”: the “binding affinity to DRB5*0101 molecules” value with DRB5*0101 molecules is “high affinity”. In the experiment with DRB1*1501 molecules, the “binding affinity to DRB1*1501 molecules” value is listed as “high affinity”.
Turning to Ac-[Chg]RF[Ala(indol-4-yl)]KNI (not fully specified; printed as Ac(Chg)RF(4′-IndolylAla)KNI, also called Entry 79) [Ac(Chg)RF(4′-IndolylAla)KNI], the IC50 was determined as 6 nM in experiment [3] and 3580 nM with DR2a.
On to Ac-V[Chg]RFFK (not fully specified; printed as AcV(Chg)RFFK, also called Entry 85) [AcV(Chg)RFFK], for which the IC50 in experiment [3] was 3 nM; in the experiment with DR2a it was 685 nM.
For Ac-[Gly(cPent)]RFFKNI (not fully specified; printed as Ac(Cpg)RFFKNI, also called Entry 25) [Ac(Cpg)RFFKNI], the IC50 in experiment [3] turned out to be 25 nM; with DR2a, 630 nM.
Consider Ac-[Idg]RFFKNI (not fully specified; printed as Ac(Idg)RFFKNI; reading uncertain, also called Entry 64) [Ac(Idg)RFFKNI], for which the IC50 in experiment [3] is 90 nM; in the experiment with DR2a, 17 nM.
Molecule Ac-VHFFKNI (also called Entry 2) [AcVHFFKNI] displayed an IC50 in experiment [3] of 450 nM.
